Laboratory results reported in publication PMC6536502, “Structural insights into DNA recognition by AimR of the arbitrium communication system in the SPbeta phage” (Cell Discovery, 2019).
Positions count from the first letter of the chain named. Numbers in names are those of the source.

T1: AimR-V129C (Bacillus phage SPbeta, UniProt O64094 1-386, C71S;C107S;C213S;C275S;C304S;C347S;V129C)
T1 sequence: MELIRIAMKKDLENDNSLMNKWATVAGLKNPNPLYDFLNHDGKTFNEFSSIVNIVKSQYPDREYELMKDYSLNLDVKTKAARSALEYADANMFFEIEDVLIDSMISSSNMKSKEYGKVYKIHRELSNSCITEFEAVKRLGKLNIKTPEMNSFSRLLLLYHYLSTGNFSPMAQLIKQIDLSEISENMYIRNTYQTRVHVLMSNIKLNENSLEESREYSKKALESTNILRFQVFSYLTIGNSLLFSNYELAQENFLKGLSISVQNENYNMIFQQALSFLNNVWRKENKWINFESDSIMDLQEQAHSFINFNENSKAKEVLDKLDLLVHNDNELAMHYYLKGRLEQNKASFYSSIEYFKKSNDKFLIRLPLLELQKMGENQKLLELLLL

T2: AimR (Bacillus phage SPbeta, UniProt O64094 1-386)
T2 sequence: T1 sequence with S71C, S107C, C129V, S213C, S275C, S304C, S347C

B1: AimR protein from the SPbeta phage, full length, wild type (natural protein, UniProt O64094 1-386, looked up)
chain: T1 sequence with S71C, S107C, C129V, S213C, S275C, S304C, S347C
notes: AimR of Bacillus phage SPbeta, full length (DBD residues 1-48, CTD residues 49-386), codon-optimized cDNA in pET21b; also called SPbeta AimR; wild-type AimR; source: E. coli BL21 (DE3), purified (Ni-NTA, anion exchange Source 15Q, SEC Superdex-200)
B2: AimR-N166C (C71S/C107S/C213S/C275S/C304S/C347S/N166C) (natural protein, SPbeta phage, UniProt O64094 1-386, looked up)
chain: T1 sequence with C129V, N166C
notes: AimR of Bacillus phage SPbeta, full length with six Cys-to-Ser changes and N166C, in pET15b; His tag removed with drICE as for the other mutant proteins; source: E. coli BL21 (DE3), purified as the mutant proteins (gel filtration)
B3: AimR-V129C (C71S/C107S/C213S/C275S/C304S/C347S/V129C), labelled with Alexa Fluor 488 and Cy5 (natural protein, SPbeta phage, UniProt O64094 1-386, looked up)
chain: T1 sequence
modifications: Alexa Fluor 488 C5 maleimide or Cy5 maleimide conjugated to Cys129 (double-labeled protein fraction collected)
notes: AimR of Bacillus phage SPbeta, full length with six Cys-to-Ser changes and V129C, in pET15b; His tag removed with drICE as for the other mutant proteins; also called dye-labeled protein; source: E. coli BL21 (DE3), purified as the mutant proteins; dye-conjugated and purified on a Source-Q column
B4: 37 bp DNA (dsDNA)
DNA 1: ATCACTTAAATATTAGGTTTTAATAACATCTAGTGAT
DNA 2: ATCACTAGATGTTATTAAAACCTAATATTTAAGTGAT
B5: C2A (dsDNA)
DNA 1: AATTAAATATTAGGTTTTAATAACATCTAGT
DNA 2: ACTAGATGTTATTAAAACCTAATATTTAATT
B6: C2G (dsDNA)
DNA 1: B5 DNA 1 with A2G
DNA 2: B5 DNA 2 with T30C
B7: A1T/T31'A (dsDNA)
DNA 1: B5 DNA 1 with A1T, A2C
DNA 2: B5 DNA 2 with T30G, T31A
B8: C2T (dsDNA)
DNA 1: B5 DNA 1 with A2T
DNA 2: B5 DNA 2 with T30A
B9: A1G/T31'C (dsDNA)
DNA 1: B5 DNA 1 with A1G, A2C
DNA 2: B5 DNA 2 with T30G, T31C
B10: arbitrium peptide GMPRGA (peptide)
peptide: GMPRGA
notes: mature arbitrium hexapeptide of the SPbeta phage, cut from the precursor encoded by the aimP gene; also called arbitrium hexapeptide; GMPRGA peptide; source: synthetic peptide, bought: GLS Biochem

Columns and labels:
[1] = biological target: the molecule itself; test: crystal structure; full-length AimR with the 31 bp DNA fragment and 5 mM MgCl2, 2.10 Å, PDB 6JG8
[2] = biological target: the molecule itself; test: cross-linking; disulfide cross-linking of Cys166 by o-phenanthroline copper complex, AimR-N166C ~1 mg/ml, room temperature 30 min, nonreducing SDS-PAGE; alone or with DNA, unrelated peptide or arbitrium peptide
[3] = biological target: the molecule itself; test: FRET or BRET; single-molecule FRET in solution between Alexa488 and Cy5 on Cys129 of the protomers, ~150 pM labelled AimR V129C, 25 °C, pH 7.4, 20 mM phosphate, 100 mM NaCl, 0.01% Tween 20; peptides titrated in
AimR-V129C = biological target: T1, AimR-V129C; test: smFRET; 1 uM DNA; EMSA: 25 mM Tris-HCl pH 8.0, 150 mM NaCl, 5 mM MgCl2, 5 mM DTT, 0.1 mg/ml BSA, 10% glycerol, 50 ug/ml salmon sperm DNA, 4 C, 15 min; smFRET: 20 mM phosphate pH; settings: protein: recombinant; tags: 6xHis removed by drICE; Alexa Fluor 488 and Cy5 on C129; chain copies: 2
AimR = biological target: T2, AimR; test: EMSA; 5 mM Mg2+; EMSA: 25 mM Tris-HCl pH 8.0, 150 mM NaCl, 5 mM MgCl2, 5 mM DTT, 0.1 mg/ml BSA, 10% glycerol, 50 ug/ml salmon sperm DNA, 4 C, 15 min; smFRET: 20 mM phosphate pH; settings: protein: recombinant; tags: C-terminal 8xHis; chain copies: 2; label: FAM
[4] = biological target: B1; test: crystal structure; AimR (~270 µM) incubated with arbitrium peptide GMPRGA (2.7 mM), PDB 6JG9; settings: both partners purified

## B1
[1]
  stoichiometry N: 2

## B2
[2]
  stoichiometry N: 2

## B3
[3]
  binding result: binds

## B4
AimR-V129C
  binding result: binds

## B5
AimR
  binding signal: ~8 fold lower binding than WT DNA

## B6
AimR
  binding signal: ~9 fold lower binding than WT DNA

## B7
AimR
  binding signal: ~7 fold lower affinity than WT DNA

## B8
AimR
  binding signal: ~42 fold lower binding than WT DNA

## B9
AimR
  binding signal: ~19 fold lower affinity than WT DNA

## B10
[4]
  binding result: binds
